Measurements taken from patent EP4703474A1, “ANTI-LRRC15 ANTIBODY” (priority 2023, dated 2024).

What was measured:
[1] = test system: Head and neck carcinoma cell line Detroit 562; assay: In vivo antitumor effect, Detroit 562 subcutaneous transplant model; settings: 0.4 mg/kg, tail vein, on Day 10, female SCID mice
Protocol: (§1) The antitumor effects of the antibody-drug conjugates were evaluated by using animal models in which cells of a human tumor cell line had been transplanted into immunodeficient mice, or cells of a mouse tumor cell line had been transplanted into immunocompetent mice. 4 to 6 Week-old SCID mice (CB17/Icr-Prkdc[scid]/CrlCrlj, Jackson Laboratory Japan, Inc.), NSG mice (NOD.Cg-Prkdcscid Il2rgtm1Wjl/SzJ, Jackson Laboratory Japan, Inc.), or B6J mice (C57BL/6J, Jackson Laboratory Japan, Inc.) were habituated for 3 days or more under SPF conditions before experimental use. The mice were fed with sterilized solid feed and given sterilized tap water. The major and minor diameters of the transplanted tumors were measured twice a week with an electronic digital caliper (Mitutoyo Corporation), and the estimated tumor volume was calculated using the following formula. Estimated tumor volume (mm^3) = 1/2 × major diameter (mm) × [minor diameter (mm)]^2 All antibody-drug conjugates were diluted with ABS and administered into the tail vein at doses shown in each Example. In addition, ABS (vehicle) or control hIgG-PBD prepared in Reference Example 4 was administered as the control group, in a similar manner. 5 to 6 Mice were used per group in the experiment. To analyze the LRRC15 expression in mouse tumor models, immunohistochemical staining of LRRC15 was performed. […]

[2] = test system: Fibrosarcoma cell line HT-1080; assay: In vivo antitumor effect, HT-1080 subcutaneous transplant model; settings: 0.4 mg/kg, tail vein, on Day 7, female SCID mice
Protocol: as §1

B1: H02L01-V1-PBD (conjugate)
heavy: EVQLVESGGGLVQPGGSLRLSCAASGFTFRDYYMAWVRQAPGKGLEWVSSIGFDESRTYYADSVKGRFTISRDDSKNTLYLQMNSLRAEDTAVYYCARHGVSKYSGDNWFAYWGQGTLVTVSSASTKGPSVFPLAPSSKSTSGGTAALGCLVKDYFPEPVTVSWNSGALTSGVHTFPAVLQSSGLYSLSSVVTVPSSSLGTQTYICNVNHKPSNTKVDKKVEPKSCDKTHTCPPCPAPEAAGGPSVFLFPPKPKDTLMISRTPEVTCVVVDVSHEDPEVKFNWYVDGVEVHNAKTKPREEQYNSTYRVVSVLTVLHQDWLNGKEYKCKVSNKALAAPIEKTISKAKGQPREPQVYTLPPSREEMTKNQVSLTCLVKGFYPSDIAVEWESNGQPENNYKTTPPVLDSDGSFFLYSKLTVDKSRWQQGNVFSCSVMHEALHNHYTQKSLSLSPGK
light: DIQMTQSPSSLSASVGDRVTITCKSSQGLLYSGDQKNYLAWYQQKPGKAPKLLIYWASTRQSGVPSRFSGSGSGTDFTLTISSLQPEDFATYYCQQYYDPPYTFGQGTKVEIKRTVAAPSVFIFPPSDEQLKSGTASVVCLLNNFYPREAKVQWKVDNALQSGNSQESVTEQDSKDSTYSLSSTLTLSKADYEKHKVYACEVTHQGLSSPVTKSFNRGEC
How did the “antitumor effect (estimated tumor volume)” value [1] turn out when B1 was run?
Its value is “antitumor activity higher than that of the vehicle and control hIgG-PBD”.

And the “antitumor effect (estimated tumor volume)” value [2]?
Its value is “antitumor activity higher than that of the vehicle and control hIgG-PBD”.
